{"source": "paper doi:10.1101/2021.06.02.446795", "target": "HMPV nucleoprotein N (strain CAN97-83), full-length, N-RNA rings (human metapneumovirus (strain CAN97-83))", "test": "SEC", "data": [{"substance": "HMPV nucleoprotein N (strain CAN97-83), full-length, N-RNA rings (natural protein)", "values": [{"measurement": "stoichiometry N", "result": 10}]}]}
